Laboratory results published in PMC9307952 (The Journal of Biological Chemistry, 2022).

Key:
[1] = biological target: T1, E. coli LipBK135A/C169A (catalytically inactive double mutant of lipoate protein ligase B) (E. coli, UniProt P60720 1-213, K135A | C169A); test: SPR; LipBK135A/C169A immobilised on an activated gold sensor surface (Autolab ESPRIT), increasing concentrations of ACP passed over; 20 mM sodium phosphate pH 8.0, 100 mM NaCl, 298 K; global fit of five injections, 1:1 Langmuir model; details: both partners purified
[2] = biological target: T1, E. coli LipBK135A/C169A (catalytically …); test: SPR; apparent (binding curve did not reach saturation for holo-ACP); LipBK135A/C169A immobilised on an activated gold sensor surface (Autolab ESPRIT), increasing concentrations of ACP passed over; 20 mM sodium phosphate pH 8.0, 100 mM NaCl, 298 K; global fit of five injections, 1:1 Langmuir model; details: both partners purified

| Kd [1] | Kd [2] | Binder |
| --- | --- | --- |
| 36.4 µM |  | E. coli C8-ACP (octanoyl-acyl carrier protein), SPR sample (natural protein, octanoyl (C8) chain on a 4'-phosphopantetheine arm (residue not stated)) STIEERVKKIIGEQLGVKQEEVTNNASFVEDLGADSLDTVELVMALEEEFDTEIPDEEAEKITTVQAAIDYINGHQA |
|  | 2100 µM | E. coli apo-ACP (unmodified acyl carrier protein), SPR sample (natural protein) STIEERVKKIIGEQLGVKQEEVTNNASFVEDLGADSLDTVELVMALEEEFDTEIPDEEAEKITTVQAAIDYINGHQA |
|  | 100 µM | E. coli holo-ACP (acyl carrier protein with 4'-phosphopantetheine), SPR sample (natural protein, 4'-phosphopantetheine arm (residue not stated)) STIEERVKKIIGEQLGVKQEEVTNNASFVEDLGADSLDTVELVMALEEEFDTEIPDEEAEKITTVQAAIDYINGHQA |
